Experiment [1] deals with C1q (human) (UniProt P02745). As to the kind of experiment: cell-based or functional assay.
In experiment [2] the target is C1q (human) (UniProt P02745). Kind of experiment: C1q binding ELISA, antibody coated on plate, 2 ug/ml C1q, anti-C1q-HRP detection.
A further experiment has as its target CD20 antigen (UniProt P11836). Kind of experiment: flow cytometry on WIL2-S cells expressing CD20; EC50 as percentage of C2B8 reference. Further details: unit not given beside the values. In general terms: A flow cytometer gives signals particle by particle.
Experiment [3] concerns the target C1q (human) (UniProt P02745). As to the kind of experiment: C1q binding ELISA, antibody coated on plate up to 100 ug/ml, 2 ug/ml C1q. (In general: ELISA stands for enzyme-linked immunosorbent assay.)

These results are taken from patent US20030166868A1.

Chain of CD20 antigen (P11836 whole entry): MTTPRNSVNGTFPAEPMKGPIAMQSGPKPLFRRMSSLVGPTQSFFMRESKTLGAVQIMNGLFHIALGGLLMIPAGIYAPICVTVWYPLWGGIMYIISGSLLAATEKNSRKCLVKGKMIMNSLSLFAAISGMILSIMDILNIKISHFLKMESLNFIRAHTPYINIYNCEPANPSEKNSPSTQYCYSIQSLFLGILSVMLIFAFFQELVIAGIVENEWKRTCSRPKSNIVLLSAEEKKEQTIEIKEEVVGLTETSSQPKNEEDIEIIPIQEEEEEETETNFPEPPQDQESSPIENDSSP
Chain of C1q (human) (P02745 23-245 limits assumed, chain 1 of 3): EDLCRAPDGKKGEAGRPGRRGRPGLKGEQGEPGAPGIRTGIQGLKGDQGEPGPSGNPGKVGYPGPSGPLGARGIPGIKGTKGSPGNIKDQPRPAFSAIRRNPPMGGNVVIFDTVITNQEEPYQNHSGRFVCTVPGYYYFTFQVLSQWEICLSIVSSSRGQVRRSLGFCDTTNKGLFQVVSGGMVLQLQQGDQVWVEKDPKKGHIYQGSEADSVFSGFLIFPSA
Chain of C1q (human) (P02746 28-253 limits assumed, chain 2 of 3, further chain): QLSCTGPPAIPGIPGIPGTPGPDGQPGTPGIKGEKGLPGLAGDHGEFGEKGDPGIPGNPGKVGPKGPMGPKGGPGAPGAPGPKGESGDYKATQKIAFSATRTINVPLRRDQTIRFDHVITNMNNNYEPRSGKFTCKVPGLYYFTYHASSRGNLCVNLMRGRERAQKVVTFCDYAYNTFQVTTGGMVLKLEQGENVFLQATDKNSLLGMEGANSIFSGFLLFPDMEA
Chain of C1q (human) (P02747 29-245 limits assumed, chain 3 of 3, further chain): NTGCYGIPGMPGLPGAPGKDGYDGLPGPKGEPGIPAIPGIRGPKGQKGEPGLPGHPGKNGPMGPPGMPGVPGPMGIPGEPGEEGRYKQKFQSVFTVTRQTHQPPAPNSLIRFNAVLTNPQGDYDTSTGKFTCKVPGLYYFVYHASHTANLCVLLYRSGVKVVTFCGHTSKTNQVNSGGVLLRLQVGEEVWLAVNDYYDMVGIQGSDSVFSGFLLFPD

The substance C2B8 mutant E318A (antibody) came in with a CDC (percent activity as compared to wild type C2B8) (% of wild type) with C1q (human) [1] of 108. Further, the percent decrease in binding against wild type C2B8 in the experiment with C1q (human) [2] was 30 % decrease. The substance also registered an EC50 as a percentage of the wild type (% of wild type) with CD20 antigen of 89.

As to C2B8 mutant K320A (antibody), the CDC (percent activity as compared to wild type C2B8) (% of wild type) with C1q (human) [1] was 108. Besides, in the experiment with CD20 antigen, the EC50 as a percentage of the wild type (% of wild type) is 102.

The substance C2B8 mutant P329A (antibody) yielded an EC50 as a percentage of the wild type (% of wild type) with CD20 antigen of 112.

In the experiment with C1q (human) [3], C2B8 mutant P331A (antibody) displayed a fold lower binding than wild type C2B8 (fold lower than wild type) of 60. This substance also showed an EC50 as a percentage of the wild type (% of wild type) with CD20 antigen of 103.
